Test results taken from US20260132208A1 (DOMAIN THERAPEUTICS, published 2026).
Where “and” joins values, the source holds several entries; their conditions need not be identical. Equal values may be shown once.

What was measured:
human CCR8 [1] = molecular target: T1, human CCR8 (human, UniProt P51685 1-355); assay: cell-based or functional assay
human CCR8 [2] = molecular target: T1, human CCR8; assay: cell-based or functional assay; remark: listed apart in the source
human CCR8 [3] = molecular target: T1, human CCR8; assay: flow cytometry, inhibition of hCCL1-AF647 (10 nM) binding to hCCR8-CHO cells
Protocol: The hCCR8 transfected CHO cell line was dispatched at a density of 1.105 per well in a 96-well plate. Cells were incubated for 30 min at 4° C. with or without anti-CCR8 mAb tested at 10 μg/mL then diluted at 1/3. Unbound antibodies were washed away with PBS (Gibco, Villebon-sur-yvette, France) supplemented by 2% Fetal Bovine Serum (Invitrogen by Thermofisher Scientific, Illkirch-Graffenstaden, France) and 2 mM EDTA. […] After washing unbound ligands, CCL1 bound detection is quantified on a MacsQuant16 (Miltenyi, Gladbach, Germany) (R1 channel, 5 000 events per acquisition).
For IC₅₀ determination, a concentration response curve is performed using 8 concentrations of mAb. Curves are fitted and IC₅₀ of CCL1 binding blocking activity is calculated using the sigmoidal dose-response (variable slope) model on GraphPad Prism 9 (GraphPad Software, San Diego, CA, USA).

human CCR8 [4] = molecular target: T1, human CCR8; assay: cell-based or functional assay; remark: listed apart in the source
pm5 = molecular target: T2, pm5 (Y15 and Y17 sulfated; Y16 not sulfated); assay: ELISA on coated peptide [cont.]
T2 construct: also called sulfated CCR8 N-terminal peptide pm5
Protocol: (§1) The specific binding properties of antibodies were evaluated by ELISA with coated CCR8 related peptides (500 ng/ml) in carbonate/bicarbonate buffer. Different peptides were used as described in Table 1 (see Example 1). Each anti-CCR8 mAb was tested at 1 μg/mL then diluted at 1/10. After an incubation at room temperature during 90 min, unbound mAbs were removed by washings. […] After washings, 3,3′,5,5′-tetramethylbenzidine (TMB) (Interchim, Montluçon, France) was added for 15 min. Then the optical density (OD) was determined by using a multiplate reader (Tecan, Lyon, France) and correlated with mAb reactivity on the panel of coated peptides.

pm3 = molecular target: T3, pm3 (Y17 sulfated; Y15 and Y16 not sulfated); assay: ELISA on coated peptide [cont.]
T3 construct: also called sulfated CCR8 N-terminal peptide pm3
Protocol: as §1

pm6 = molecular target: T4, pm6 (Y16 and Y17 sulfated; Y15 not sulfated); assay: ELISA on coated peptide [cont.]
T4 construct: also called sulfated CCR8 N-terminal peptide pm6
Protocol: as §1

pm8 = molecular target: T5, pm8 (Y15, Y16 and Y17 sulfated); assay: ELISA on coated peptide [cont.]
T5 construct: also called sulfated CCR8 N-terminal peptide pm8
Protocol: as §1

human CCR8 [5] = molecular target: T1, human CCR8; assay: cell-based or functional assay; remark: listed apart in the source
human CCR8 [6] = molecular target: T1, human CCR8; assay: flow cytometry, hCCR8-transfected CHO-K1 cells
Protocol: Briefly, 1.10⁵ cells per well in a 96 well plate were incubated with a dilution of unconjugated anti-CCR8 mAb at 10 μg/mL then diluted at 1/3.33, 4 dilution points (during 30 min at 4° C.). In human activated T cells model, prior to mAb incubation, cells were first incubated with 200 nM of hCCL1 (R&D Systems, Minneapolis, MN, USA) or buffer PBS (Invitrogen by Thermofisher Scientific, Illkirch-Graffenstaden, France) supplemented by 2% Fetal Bovine Serum (Invitrogen by Thermofisher Scientific, Illkirch-Graffenstaden, France) and 2 mM EDTA (Invitrogen by Thermofisher Scientific, Illkirch-Graffenstaden, France) during 1 hour at 4° C. To determine EC50 value, 8 concentrations of anti-CCR8 mAb were tested. Unbound antibodies were washed away with PBS (Invitrogen by Thermofisher Scientific, Illkirch-Graffenstaden, France) supplemented by 2% Fetal Bovine Serum (Invitrogen by Thermofisher Scientific, Illkirch-Graffenstaden, France) and 2 mM EDTA (Invitrogen by Thermofisher Scientific, Illkirch-Graffenstaden, France). Subsequently, cells are centrifuged (5 min at 400 g) and bound antibody is detected with F(ab′)2-Goat anti-Mouse IgG (H+L) Cross-Adsorbed Secondary Antibody, Alexa Fluor 488 (dilution 1/500) (Invitrogen by Thermofisher Scientific, Illkirch-Graffenstaden, France) or with F(ab′)₂-Goat anti-Human IgG Fc Secondary Antibody, PE (Invitrogen by Thermofisher Scientific, Illkirch-Graffenstaden, France) (dilution 1/1000) at 4° C. for 30 min. Detection reagent is washed away and cells are centrifuged (5 min at 400 g) and resuspended in 30 μL PBS. Bound detection antibody is quantified on a MacsQuant16 (Miltenyi, Gladbach, Germany) (B1 or B2 channel, 5000 events per acquisition). During the experiment, the respective isotype mAb controls (mouse IgG1, mouse IgG2a, mouse IgG2b, mouse IgG3 or human IgG1) (Biolegend, Amsterdam, The Netherlands) are included to exclude any unspecific binding events. EC50 values were determined via nonlinear fit “log (agonist) vs.response—Variable slope (four parameters)” function of Graphpad prism. EC50 values were not constantly determined in the same experiments.

T2 sequence (peptide, as listed by the source): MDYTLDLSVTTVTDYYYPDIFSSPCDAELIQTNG
T4 sequence (peptide, as listed by the source): as above
T5 sequence (peptide, as listed by the source): as above
T3 sequence (peptide, as listed by the source): as above

Binder | IC50 of CCL1-induced hCCR8 Gi2 signaling (BRET, HEK-293) (human CCR8 [1]) | IC50 of CCL1-induced hCCR8 Gi2 signaling (BRET), pH 6.5 (human CCR8 [2]) | IC50 of CCL1-induced hCCR8 Gi2 signaling (BRET), pH 7.4 (human CCR8 [2]) | IC50 (human CCR8 [3]) | residual hCCL1 (100 nM) Gi2 response, protocol #2, mAb 0.08 µg/mL (human CCR8 [4]) | residual hCCL1 (100 nM) Gi2 response, protocol #2, mAb 0.4 µg/mL (human CCR8 [4]) | residual hCCL1 (100 nM) Gi2 response, protocol #2, mAb 10 µg/mL (human CCR8 [4]) | residual hCCL1 (100 nM) Gi2 response, protocol #3, mAb 0.05 µg/mL (human CCR8 [4]) | residual hCCL1 (100 nM) Gi2 response, protocol #3, mAb 0.5 µg/mL (human CCR8 [4]) | residual hCCL1 (100 nM) Gi2 response, protocol #3, mAb 5 µg/mL (human CCR8 [4]) | binding result (pm5) | binding result (pm3) | binding result (pm6) | binding result (pm8) | extrapolated top plateau of hCCL1 curve with 5 µg/mL mAb, protocol #3 (human CCR8 [5]) | % positive cells (human CCR8 [6]) | MFI fold change to isotype ctrl (human CCR8 [6])
anti-CCR8 mAb 1-2 (antibody, V domains shown, Murine hybridoma mAb) VH: EVQLVESGGGLVQPKGSLKLSCAASGFTFNTYAMNWVRQAPGKGLEWVARIRSKSNNYATYYADSVKDRFTISRDDSQSMLYLQMNNLKTEDTAMYYCVRGREAYYRYDGGYYAMDYWGQGTSVTVSS VL: DIVMTQAAPSVPVTPGESVSISCRSSKSLLHSNGNTYLYWFLQRPGQSPQLLIYRMSNLASGVPDRFSGSGSGTAFTLRISRVEAEDVGVYYCMQHLEYPFTFGSGTKLEIK | 0.191 nM and 0.029 µg/mL | 0.03 µg/ml and 0.198 nM | 0.031 µg/ml and 0.21 nM | 0.83 µg/mL and 5.55 nM | 60% | 36% | 19% | 74% | 68% | 48% | binds | binds | binds | binds | 640000 % of hCCL1 (100 nM) | 90.6% | 22.7 fold
anti-CCR8 mAb 1-1 (antibody, V domains shown, Murine hybridoma mAb) VH: EVQLLESGGGLVQPKGSLKLSCAASGFTFNPYAMNWVRQAPGRGLEWVARIRSKSNNYATYYADSVKDRFTISRDDSQDMLYLQMNNLKTEDTAMYYCVRGREAYYRYDGDYYAMDYWGQGTSVTVSS VL: DIVMTQAAPSVPVTPGESVSISCRSSKSLLHSNGNTYLYWFLQRPGQSPQLLIYRMSNLASGVPDRFSGSGSGTAFTLRISRVEAEDVGVYYCMQHLEYPFTFGSGTKLEIK | 0.023 µg/mL and 0.153 nM | 0.021 µg/ml and 0.143 nM | 0.024 µg/ml and 0.163 nM | 1.02 µg/mL and 6.83 nM | 81% | 69% | 44% | 77% | 57% | 49% | binds | binds | binds | binds | 760000 % of hCCL1 (100 nM) | 72.8% | 6.32 fold
anti-CCR8 mAb 1-4 (antibody, V domains shown, Murine hybridoma mAb) VH: EVQLVESGGGLVQPTGSLRLSCAASGFTFNAYAMNWVRQAPGKGLEWVARIRSKSNDYATYYGDSVKDRFTISRDDSQSMLYLQMNNLKTEDTAMYYCVRGREAYYRYDGGYYAMDYWGQGTSVTVSS VL: DIVMTQAAPSVSVTPGESVSISCTSSKSLLHSNGNTYLYWFLQRPGQSPQLLIYRMSNLASGVPDRFSGSGSGTAFTLRISRVEAEDVGVYYCMQHREYPFTFGSGTKLEIK | 0.034 µg/mL and 0.227 nM | 0.034 µg/ml and 0.225 nM | 0.065 µg/ml and 0.434 nM | 1.93 µg/mL and 12.9 nM | 72% | 49% | 28% | 75% | 36% | 22% | binds | binds | binds | binds | 313000 % of hCCL1 (100 nM) | 66.8% | 5.06 fold
anti-CCR8 mAb 1-8 (antibody, V domains shown, Murine hybridoma mAb) VH: EVQLVESGGGLVQPKGSLRLSCAASGFTFNAYAMNWVRQAPGKGLEWVARIRSKSNNYATYYGDSVKDRFTISRDDSQTMLYLQMNNLKTEDTAMYYCVRGREAYYRYDGDYYAMDYWGQGTSVTVSS VL: not shown | 0.031 µg/mL and 0.209 nM | 0.053 µg/ml and 0.355 nM | 0.063 µg/ml and 0.421 nM | 2.55 µg/mL and 17.1 nM | 70% | 44% | 51% | 78% | 55% | 43% | binds | binds | binds | binds | 511000 % of hCCL1 (100 nM) | 68.5% | 5.12 fold
anti-CCR8 mAb 1-15 (antibody, V domains shown, Murine hybridoma mAb) VH: EVQLQQSGPELVKPGASVKISCKTSGYTFTEYTMHWVKQSHGKSLEWIGGINPNNGDTNYNQKFMGKATLTVDKSSSTAYMELRSLTSEDSAVYYCVRRLLRRGAMDYWGQGTSVTVSS VL: DIVLTQSPASLAVSLGQRATISCRASENVEYYGTSLMQWFQQKPGQPPKLLIYAASNVDSGVPARFSGSGSGTDFSLNIHPVEEDDIAMYFCQQSRKVPWTFGGGTKLDIK | 0.019 µg/mL and 0.129 nM |  |  | 0.75 µg/mL and 5.01 nM | 99% | 102% | 95% | 102% | 97% | 67% | binds | binds | binds | binds | 135000 % of hCCL1 (100 nM) | 73.4% | 6.52 fold
